The subject of this data set is MS2 coat protein. The data set is described as follows: apparent KD of MS2 coat protein; designed switch direction (-1 OFF switch, 1 ON switch): 1; higher = weaker reporter binding. The gist of the method:
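Designed RNA switches were transcribed on Illumina chips by stalled E. coli RNA polymerase and titrated with SNAP-549-labelled MS2 coat protein from 0.7 or 1.5 nM, doubling to 3 µM. Step length ran from 0.8–1.5 h at the lowest concentration to 10–20 min at the highest. The apparent KD is the median over clusters for each design, from curve-fitted normalised cluster fluorescence.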

Where [1] appears, read: input ligand: microRNA oligo, concentration not stated.
Setting [2] is: Eterna round: R95, input ligand: FMN 200 uM.
[3] abbreviates: Eterna round: R95, input ligand: microRNA oligo, concentration not stated.
Setting [4] is: Eterna round: R95, input ligand: none.

As for “GAGAGACGAUUAGGAUAUCCGGUGAUAAUGAUAGGAGAAGGAAUUGACAUGAGGAUCACCCAUGUGGGAAUAAUCCAGAGAGAG [Parity 24 - Jieux - Same State NG 1] (Eterna round: R96, puzzle: Same State NG 1)”, the “apparent KD of MS2 coat protein” value is 86.5 nM (input ligand: FMN 200 uM), 66.5 nM under setting [1] and 89.7 nM (input ligand: none).

“UAGGGACAUGAGGAUCACCCAUGUGCCUCAUAUGGAGAAACUCAGGAUAUGCUGAGGAUCACCCGGCAGAAGGGAGAUUUGAGG (Eterna round: R96, puzzle: Same State NG 3)”: the “apparent KD of MS2 coat protein” value was 42.3 nM (input ligand: FMN 200 uM), 26.3 nM under setting [1] and 36.4 nM (input ligand: none).

For “AUUAUUAAUGCAGGAUAUGAUUAACAUGAGGAUCACCCAUGUGGUGUUGUGAGUAAGGAGAGUGAUCAGAAGGGCAUUUUUGUU [JMF's solution 14] (Eterna round: R96, puzzle: Same State NG 2)”, the “apparent KD of MS2 coat protein” value (input ligand: FMN 200 uM) was 811 nM, the “apparent KD of MS2 coat protein” value under setting [1] is 330 nM and the “apparent KD of MS2 coat protein” value (input ligand: none) came to 629 nM.

For the sequence “AACAUGAGGAUCACCCAUGUAGAAAAGUGAGGCAGCUCAGGGAAGGAUAUGGUUGACACCCUCGACCAGAAGGUCCAAAAUAAA [Argeatonra] (Eterna round: R96, puzzle: Same State NG 3)”, the “apparent KD of MS2 coat protein” value came out at 31.2 nM (input ligand: FMN 200 uM), 54.2 nM under setting [1] and 63.6 nM (input ligand: none).

On to “CGUCCGGCCUGUGCUGGCCGGCGGCUUGUACAUGAGGAUCACCCAUGUUCUUGUGCUGGCUUUUUGCUCGUCUUGUG [salish99_mir208a_022] (puzzle: Sensor for hsa-mir-208a)”, for which the “apparent KD of MS2 coat protein” value reads like this: under setting [2], 32.2 nM; under setting [3], 16.3 nM; under setting [4], 39.5 nM.

Consider “GGUGGGUUACUACCCACACAUGAGGAUCACCCAUGUAUUGGGAAGGAUAUGGUGCCUAUUUGGUACCAGAAGGUCCUGAAGGUG [SS-NG3-LRO17] (Eterna round: R96, puzzle: Same State NG 3)”, for which the “apparent KD of MS2 coat protein” value amounted to 980 nM (input ligand: FMN 200 uM), 571 nM under setting [1] and 1770 nM (input ligand: none).

On to “UAAAGAUCGCGAGGAUAUCGCGAGGAUCACCCGUGAGAAGGCGCAGAGCCGAGGAUCACCCGGCUGAUCCUGAGGAGGAGGUAA (Eterna round: R96, puzzle: Same State NG 1)”, for which the “apparent KD of MS2 coat protein” value amounted to 249 nM (input ligand: FMN 200 uM), 410 nM under setting [1] and 556 nM (input ligand: none).

“GGAUGAUUAACAGGAUAUCAUUUGUAAAUUGGUUGAGAAGGGUUAAUGAUUUAAACGACCUGUUACAUGAGGAUCACCCAUGUU [SameState NG1 #1] (Eterna round: R96, puzzle: Same State NG 1)”: the “apparent KD of MS2 coat protein” value under setting [1] was 45.6 nM.

In the case of “AGGCUCAGACGAGGAUAUAUGCGAUCACAUGAGGAUCACCCAUGUCUCGAGCUUCGGCUCGAGGCAUAGAAGGUGUCUGAGCCA [SSNG2/4-C1] (Eterna round: R96, puzzle: Same State NG 2)”, the “apparent KD of MS2 coat protein” value (input ligand: FMN 200 uM) came out at 31.4 nM, the “apparent KD of MS2 coat protein” value under setting [1] stood at 111 nM and the “apparent KD of MS2 coat protein” value (input ligand: none) was 126 nM.

On to “GGAGCCAAGGCAGGAUAUUCAUAUUAAAACAUGAGGAUCACCCAUGUAAAGGCCAGAAGGCCUUUGGAGAAGGGCCAUGGCUCG [Xeonanis - 13 mod14] (Eterna round: R96, puzzle: Same State NG 2)”, for which the “apparent KD of MS2 coat protein” value is, setting by setting: (input ligand: FMN 200 uM) 17.7 nM; under setting [1], 15 nM; (input ligand: none) 24.4 nM.

With “AUCCUACAUGAGGAUCACCCAUGUGACGCCUCGAUAGGAUAUGCGUGUGCCUUGGCGCAUGCAGAAGGAUUGGAGC [JL Aveso mod 5] (puzzle: Same State 1)”, the “apparent KD of MS2 coat protein” value came out at 88.4 nM under setting [2], 72.6 nM under setting [3] and 78.5 nM under setting [4].

“GCUCGACGUGUUGUCUACAUGAGGAUCACCCAUGUAGGUGCGGAGGAUAUCUACGUGUUUUAUGUAGAGAAGGUCGUGUCGAGC [SameState NG3 #88] (Eterna round: R96, puzzle: Same State NG 3)”: the “apparent KD of MS2 coat protein” value turned out to be 15.1 nM (input ligand: FMN 200 uM), 15.5 nM under setting [1] and 17.2 nM (input ligand: none).

Regarding “GGUGGGUUACUACCCACACAUGAGGAUCACCCAUGUAUUGGGAAGGAUAUGGUACCUAUUUGGUACCAGAAGGUCCUGAUGGUG [SS-NG3-LRO15] (Eterna round: R96, puzzle: Same State NG 3)”, the “apparent KD of MS2 coat protein” value by setting is: (input ligand: FMN 200 uM) 1280 nM; under setting [1], 312 nM; (input ligand: none) 1610 nM.

On to “AGAGGAGGAGCAGGAUAUGCGAAGAAGAAAGAGGUAGAAGGGCUCAUGGGAUGACAUGAGGAUCACCCAUGUACCGCCCGAGGA [AK SSNG1-V2-8.1] (Eterna round: R96, puzzle: Same State NG 1)”, for which the “apparent KD of MS2 coat protein” value by setting is: (input ligand: FMN 200 uM) 11.5 nM; under setting [1], 46.4 nM; (input ligand: none) 297 nM.

On to “GAGGGCGAAAGCGACAUGAGGAUCACCCAUGUCCUCGGAGGACAGGAUAUCCGGCAAAAGCCGAAGGAGAAGGGUCGAAAAGAA [AK SSNG3-V2-37] (Eterna round: R96, puzzle: Same State NG 3)”, for which the “apparent KD of MS2 coat protein” value was 47.2 nM (input ligand: FMN 200 uM), 69.7 nM under setting [1] and 136 nM (input ligand: none).

Consider “GUGGUCAGACAUGAGGAUCACCCAUGUGGAAUAAAUAACACAGAGGAUAUGGAAUAUAAAAUAUACCAGAAGGCUGGAUUGGUG (Eterna round: R96, puzzle: Same State NG 3)”, for which the “apparent KD of MS2 coat protein” value was 131 nM (input ligand: FMN 200 uM), 188 nM under setting [1] and 268 nM (input ligand: none).

On to “CCAUAACUGUGAGGAUAUUGUUGCGUUUAGUGACGAGAAGGCAUUCAUGUGAUAUAUACAUACAUGAGGAUCACCCAUGUUGUA [NG 1 30P] (Eterna round: R96, puzzle: Same State NG 1)”, for which the “apparent KD of MS2 coat protein” value under setting [1] was 21.4 nM.

Consider “GGAGAACAUGAGGAUCACCCAUGUGGAUGGGCGCUAGGAUAUGCGGGAGGGUGAAGAGAAGCAGAAGGAGUGGAUA [JR_SS1_Sub035] (puzzle: Same State 1)”, for which the “apparent KD of MS2 coat protein” value under setting [3] amounted to 56.7 nM.

Take “CCUAUAGCCACAGGAUAUGAGAACACGUUGAACGUACAUGAGGAUCACCCAUGUCGCCGAUCGACUUAGAAGGGUGGCCCUCGC [Eternabot solution 26] (Eterna round: R96, puzzle: Same State NG 2)”: the “apparent KD of MS2 coat protein” value (input ligand: FMN 200 uM) is 34.4 nM, the “apparent KD of MS2 coat protein” value under setting [1] worked out at 37.9 nM and the “apparent KD of MS2 coat protein” value (input ligand: none) was 29.4 nM.

“GUUACAUGAGGAUCACCCAUGUAUGUGUGGGAGUAAGUGUCUUAGGAUAUCUAUGAUUUAGUUUAAGAGAAGGAAGAUUGUUGU [JMF's solution 79] (Eterna round: R96, puzzle: Same State NG 3)”: the “apparent KD of MS2 coat protein” value (input ligand: FMN 200 uM) worked out at 117 nM, the “apparent KD of MS2 coat protein” value under setting [1] came out at 86.3 nM and the “apparent KD of MS2 coat protein” value (input ligand: none) stood at 111 nM.

On to “GGAUGAUAGACAGGAUAUUGAAUGUAAAUAGGACAAGAAGGGUCAAUGAUAUAAACGACCAGUUACAUGAGGAUCACCCAUGUU [JR_SSNG1_Sub023] (Eterna round: R96, puzzle: Same State NG 1)”, for which the “apparent KD of MS2 coat protein” value turned out to be 37.1 nM (input ligand: FMN 200 uM), 30.5 nM under setting [1] and 38.9 nM (input ligand: none).

On to “GCCAACUCAUGAGGAUAUGGCACCUUAUUGGUGCCAGAAGGCAUGUCUAUUGACAUGAGGAUCACCCAUGUAUUAUUGUUGGCA [Fiskers NG1ss - 24] (Eterna round: R96, puzzle: Same State NG 1)”, for which the “apparent KD of MS2 coat protein” value runs as follows: (input ligand: FMN 200 uM) 80 nM; under setting [1], 717 nM; (input ligand: none) 893 nM.

As for “GUUACAUGAGGAUCACCCAUGUAUGUGUGGGAGUAAGUGUCUUAGGAUAUCUAUGAUUUAAUUGAAGAGAAGGAAGAUUGUUGU [JMF's solution 84] (Eterna round: R96, puzzle: Same State NG 3)”, the “apparent KD of MS2 coat protein” value under setting [1] came to 99.1 nM.

Take “GGUAAACAUGAGGAUCACCCAUGUAAUAUAAUGGGAGGAUAUCUGAAUUAAUUAAAUUAAGGAGAAGGCCUAAUGG [Mat - Same State 1 - Mod of Eli - D49] (puzzle: Same State 1)”: the “apparent KD of MS2 coat protein” value under setting [2] is 248 nM, the “apparent KD of MS2 coat protein” value under setting [3] is 245 nM and the “apparent KD of MS2 coat protein” value under setting [4] worked out at 321 nM.

In the case of “UGUUGUAAUACAGGAUAUAUAUUAUUUUUAUUUAUAGAAGGGUAAUCACAUGAGGAUCACCCAUGUAUAUACGAGGAAGAAGAG [JMF's solution 3] (Eterna round: R96, puzzle: Same State NG 1)”, under setting [1], the “apparent KD of MS2 coat protein” value is 139 nM.

For “CAUCCCUCCACAGGAUAUCGACCAAUAAAACGGCGAGAAGGGUGGCCACAUGAGGAUCACCCAUGUGGAAUUGGAUGAACUACC [Atusmaceor] (Eterna round: R96, puzzle: Same State NG 1)”, the “apparent KD of MS2 coat protein” value runs as follows: (input ligand: FMN 200 uM) 141 nM; under setting [1], 120 nM; (input ligand: none) 77 nM.

For “UUGGUGUAGAUACAGGAUAUGUUGAUUGUAACAUGAGGAUCACCCAUGUAUCUAUGAGAUUAAAUGCAGAAGGGUGCACAUCACU [salish99_ss2_r3_090] (puzzle: Same State 2)”, the “apparent KD of MS2 coat protein” value runs as follows: under setting [2], 209 nM; under setting [3], 92.9 nM; under setting [4], 276 nM.

On to “AGCUAGUACCGAGGAUAUACAUACAUGAGGAUCACCCAUGUAUACAUGAACAAUUGAGACUACAUGUAGAAGGCGGUACUAGCA [JL SSNG2 1.19] (Eterna round: R96, puzzle: Same State NG 2)”, for which the “apparent KD of MS2 coat protein” value under setting [1] was found to be 37.4 nM.

“CGUCCCUCCACAGGAUAUCGACCAUUAAAACGGCGAGAAGGGUGGCCACAUGAGGAUCACCCAUGUGGAAUUGGACAAGCUACC [Veonso] (Eterna round: R96, puzzle: Same State NG 1)”: the “apparent KD of MS2 coat protein” value by setting is: (input ligand: FMN 200 uM) 127 nM; under setting [1], 23.9 nM; (input ligand: none) 127 nM.

Values taken from the supplement of paper PMC9170038.
